± gives the uncertainty stated by the source.
Assay: protein stability index of a GFP-peptide fusion (yeast GPS) (PSI 1-4); higher = more stable; sorted into four equal gates, so the index is relative within each strain
Summary of the method: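 Yeast carrying a pooled library were grown to mid-log phase in leucine-free medium. Each library plasmid expresses Cherry and has a tiled 17-residue yeast protein peptide fused downstream of GFP. Cells were sorted into four equal gates by GFP/Cherry ratio, and plasmids from each gate were PCR-amplified, Illumina-sequenced and assigned to strains by barcode. Summing, across gates, the read frequency times the gate number gave each peptide's protein stability index.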

Sequence | protein stability index (doa10∆) | protein stability index (pdr5∆) | protein stability index (san1∆) | protein stability index (ubr1∆)
LDKDSSQSSAAAGASVD [RPN6] | 3.47 ± 0.11 | 3.42 ± 0.078 | 3.02 ± 0.075 | 3.2 ± 0.086
YVESDEDDTQIVTGNLV [IRR1] | 3.47 ± 0.15 | 3.47 ± 0.12 | 3.08 ± 0.08 | 3.26 ± 0.076
PLNVLQDQYKEGIKVVD [SNF2] | – | 2.46 ± 0.11 | 1.78 ± 0.092 | 2.62 ± 0.093
HTSPHQPSDVKPTSHKQ [SIR4] | 2.76 ± 0.057 | 3.08 ± 0.059 | 2.9 ± 0.047 | 2.52 ± 0.044
SKIIVFPRDGKAPEAEQ [RPL13B] | 3.15 ± 0.085 | 3.2 ± 0.08 | 3.18 ± 0.058 | 3.33 ± 0.052
SGLFVDVKKRTYEAIDV [RPB2] | 2.48 ± 0.12 | 3.28 ± 0.12 | 2.99 ± 0.1 | 3.14 ± 0.097
SILPTRDDLFVRNLQGI [NUT1] | 1.69 ± 0.094 | 2.19 ± 0.11 | 2.05 ± 0.15 | 1.56 ± 0.058
TEQQIEIPEGVTVSIKS [RPL9B] | 2.24 ± 0.062 | 2.73 ± 0.071 | 2.39 ± 0.067 | 2.47 ± 0.059
TKANDKNESATINEMMK [FAS2] | 3.1 ± 0.084 | 3.17 ± 0.094 | 3.03 ± 0.062 | 3.11 ± 0.057
DYSRKQLGYGKFLILNE [NUT1] | 2.97 ± 0.2 | 2.31 ± 0.14 | – | 3.18 ± 0.22
KKNNAASELANPYSSYV [YAR002W/NUP60] | 2.99 ± 0.062 | 3.02 ± 0.047 | 2.98 ± 0.047 | 2.83 ± 0.054
FEIIDEASKKSAVKPRP [FAS1] | 3.21 ± 0.13 | 3.28 ± 0.14 | 3.45 ± 0.064 | 3.3 ± 0.066
AQYCYKNGLYQEAFKIY [SRP72] | 2.87 ± 0.075 | 2.94 ± 0.097 | 3.1 ± 0.069 | 3.25 ± 0.059
WEHTAAEDQILANFVAK [SRB8] | – | 2.5 ± 0.17 | – | 2.57 ± 0.11
FGRTLASVTKEILGTAQ [RPL12A] | 1.46 ± 0.1 | 1.53 ± 0.047 | 1.38 ± 0.084 | 1.62 ± 0.078
TVAVLPPNWKYESATAS [RPS13] | 1.63 ± 0.036 | 2.06 ± 0.037 | 2.07 ± 0.055 | 1.97 ± 0.028
DASPAPSNESCSPWSLQ [SRB5] | 2.72 ± 0.071 | 2.43 ± 0.052 | 2.86 ± 0.046 | 2.33 ± 0.033
SNDVLKPETPKGPIIIS [SIR2] | 3 ± 0.11 | 2.92 ± 0.077 | 2.78 ± 0.071 | 2.7 ± 0.077
LKFVKVRVRTTKIPQIG [RPB2] | 2.51 ± 0.073 | 2.55 ± 0.079 | 2.85 ± 0.13 | 2.52 ± 0.04
NTSSLQSFQNPFTASQS [YIL149C/MLP2] | 2.36 ± 0.05 | 2.02 ± 0.038 | 2.45 ± 0.048 | 2.36 ± 0.034
FDQSTNVKVIMATNRAD [RPT3] | 2.12 ± 0.054 | 2.15 ± 0.053 | 1.52 ± 0.074 | 2.02 ± 0.051
QAAGGLSIRLTNQLKSL [RPN8] | 2.75 ± 0.085 | 2.57 ± 0.088 | 2.29 ± 0.11 | 2.19 ± 0.06
AKLSDTLIIDQVRKDLG [NUT1] | 2.83 ± 0.11 | 2.32 ± 0.16 | 2.7 ± 0.13 | 2.85 ± 0.09
SINISCVQLIKCLVEKS [SWI1] | 1.78 ± 0.067 | 2.41 ± 0.055 | 2.27 ± 0.1 | 1.81 ± 0.045
KTAQTLDENLNSLSSNL [YJL041W/NSP1] | 2.48 ± 0.04 | 2.29 ± 0.055 | 2.23 ± 0.061 | 2.46 ± 0.037
NALHTERLHELKKLQSD [SMC1] | 3.59 ± 0.078 | 3.38 ± 0.12 | 3.18 ± 0.095 | 3.48 ± 0.1
ILTPESQLKKTKAQQKT [RPL7B] | 2.86 ± 0.095 | 2.89 ± 0.11 | 2.91 ± 0.076 | 2.86 ± 0.048

Sequence | protein stability index (doa10∆) | protein stability index (pdr5∆) | protein stability index (san1∆) | protein stability index (ubr1∆)
LLDVVKGTEASNDIIDK [YDL116W/NUP84] | 2.08 ± 0.19 | 2.51 ± 0.14 | 1.92 ± 0.15 | 1.47 ± 0.041
TGANFDDVERGVSRQIA [REC8] | 3.49 ± 0.11 | 3.63 ± 0.17 | 3.32 ± 0.24 | 3.58 ± 0.12
GPHKGKAPRILSTGRKF [RPL18A] | 2.81 ± 0.26 | – | 3.21 ± 0.16 | 2.92 ± 0.13
MKAVGEYMKRHPTTIES [SEC65] | 1.93 ± 0.17 | 2.24 ± 0.23 | 1.64 ± 0.3 | –
LTHVDLIEKFLRYNPLE [RPB10] | 2.91 ± 0.14 | 3.29 ± 0.12 | 3.23 ± 0.071 | 3.12 ± 0.04
PVQSKFGRKKRKGGPAT [RPT2] | 3.47 ± 0.23 | 3.11 ± 0.14 | 2.99 ± 0.095 | 3.22 ± 0.16
ARGTIEIVSDVKVVDAG [RPP0] | 1.61 ± 0.1 | 2.21 ± 0.07 | 1.96 ± 0.15 | 1.77 ± 0.095
MQENDKINQERLERRIN [CSI1] | 1.62 ± 0.065 | 1.92 ± 0.062 | 1.26 ± 0.1 | 1.27 ± 0.044
TVYISSIALLKMLKHGR [RPN11] | 2.25 ± 0.085 | 2.09 ± 0.079 | 2.65 ± 0.054 | 2.79 ± 0.066
VALPPGSNYNPYFPGGS [CYT1] | 2.32 ± 0.058 | 2.81 ± 0.064 | 2.65 ± 0.067 | 2.64 ± 0.036
PITASTSRVFAKIISKA [YML103C/NUP188] | – | 3.02 ± 0.14 | 2.53 ± 0.21 | –
SLDFLNQSFIQQKANLL [COR1] | – | 1.77 ± 0.13 | – | 1.65 ± 0.079
KAERVEDQKVVDKALIA [RPL6A] | 3.25 ± 0.057 | 3.5 ± 0.06 | 3.4 ± 0.044 | 3.5 ± 0.05
PPPGLDELETKAEKKVE [PRP8] | 3.02 ± 0.06 | 3.21 ± 0.048 | 3.13 ± 0.05 | 3.08 ± 0.049
DDDDDEDEEEEEEVTDQ [QCR6] | 3.02 ± 0.061 | 3.73 ± 0.22 | 3.4 ± 0.047 | 3.4 ± 0.12
NWRLVEVGRVVLIKKGQ [RPL14A] | 2.17 ± 0.18 | 1.74 ± 0.13 | 2.15 ± 0.13 | 2.19 ± 0.19
NAISLQLKYDTSVQEKE [YIL149C/MLP2] | 2.61 ± 0.13 | 2.33 ± 0.12 | 2.75 ± 0.099 | 2.92 ± 0.07
LKGLNGFPSAPQPLFME [YMR153W/NUP53] | 2.53 ± 0.067 | 3.04 ± 0.066 | 2.85 ± 0.067 | 2.69 ± 0.062
KIRELEAELSSTKVENS [YIL149C/MLP2] | 2.79 ± 0.13 | 3.12 ± 0.099 | 3.23 ± 0.089 | 3.12 ± 0.064
CSHIFTSDQKNKRTQFS [RPB9] | 2.52 ± 0.058 | 2.72 ± 0.052 | 2.47 ± 0.068 | 2.53 ± 0.043
VPLTKRYQHLEKITQIS [PCI8] | 2.39 ± 0.28 | 2.22 ± 0.11 | – | 1.71 ± 0.096
SIESKLEEHKNHLDELQ [SMC1] | 2.99 ± 0.093 | 2.86 ± 0.13 | 2.92 ± 0.069 | 3 ± 0.076
SELQRLSHENNVMLEKI [RPT5] | 3 ± 0.11 | 3.1 ± 0.068 | 2.89 ± 0.063 | 2.9 ± 0.051
GKILLKGDNITLITSAD [SME1] | 2.62 ± 0.092 | 3.23 ± 0.1 | 2.77 ± 0.092 | 3.2 ± 0.053
QLVYKRGFGKINKQRVP [RPL7A] | 2.46 ± 0.071 | 2.4 ± 0.079 | 3.24 ± 0.11 | 2.85 ± 0.059
GSQILSGVMDKSVLGDG [RPO31] | 3.49 ± 0.12 | 3.28 ± 0.12 | 3.41 ± 0.068 | 3.55 ± 0.067
